Molecular target: T1, CD11a (human (endogenous in NK92-CD16)) (UniProt P20701)
T1 sequence: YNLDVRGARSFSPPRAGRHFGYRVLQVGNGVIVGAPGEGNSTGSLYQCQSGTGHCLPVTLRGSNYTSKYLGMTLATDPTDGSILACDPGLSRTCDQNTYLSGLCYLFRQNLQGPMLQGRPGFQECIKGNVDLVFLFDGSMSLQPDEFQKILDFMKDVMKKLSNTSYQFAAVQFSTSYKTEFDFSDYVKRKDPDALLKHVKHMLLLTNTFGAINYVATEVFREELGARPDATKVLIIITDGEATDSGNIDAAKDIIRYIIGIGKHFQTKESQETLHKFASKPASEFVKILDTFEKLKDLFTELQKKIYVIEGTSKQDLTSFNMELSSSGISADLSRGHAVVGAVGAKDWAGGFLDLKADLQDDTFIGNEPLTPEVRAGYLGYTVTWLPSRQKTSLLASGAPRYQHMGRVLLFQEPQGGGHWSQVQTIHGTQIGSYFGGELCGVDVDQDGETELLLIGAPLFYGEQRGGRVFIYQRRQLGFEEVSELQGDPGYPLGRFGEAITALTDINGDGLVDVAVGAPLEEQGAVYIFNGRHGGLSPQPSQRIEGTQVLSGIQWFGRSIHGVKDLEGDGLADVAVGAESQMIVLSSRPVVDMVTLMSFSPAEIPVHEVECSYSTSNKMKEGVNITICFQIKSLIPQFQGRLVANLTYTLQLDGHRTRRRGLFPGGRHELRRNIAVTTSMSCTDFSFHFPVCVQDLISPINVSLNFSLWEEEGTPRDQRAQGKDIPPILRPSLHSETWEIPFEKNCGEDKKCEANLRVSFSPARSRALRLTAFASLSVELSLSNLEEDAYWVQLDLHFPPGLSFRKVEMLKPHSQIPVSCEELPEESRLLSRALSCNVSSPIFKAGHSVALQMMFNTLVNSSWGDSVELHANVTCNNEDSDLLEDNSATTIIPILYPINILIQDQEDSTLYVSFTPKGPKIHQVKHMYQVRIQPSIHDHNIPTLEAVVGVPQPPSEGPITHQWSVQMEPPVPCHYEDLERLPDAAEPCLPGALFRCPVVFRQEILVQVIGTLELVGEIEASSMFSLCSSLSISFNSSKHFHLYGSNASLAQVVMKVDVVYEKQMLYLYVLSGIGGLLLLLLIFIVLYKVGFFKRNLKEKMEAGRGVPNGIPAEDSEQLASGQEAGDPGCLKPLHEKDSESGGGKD

Chain of ICAM-1 (P05362 28-532): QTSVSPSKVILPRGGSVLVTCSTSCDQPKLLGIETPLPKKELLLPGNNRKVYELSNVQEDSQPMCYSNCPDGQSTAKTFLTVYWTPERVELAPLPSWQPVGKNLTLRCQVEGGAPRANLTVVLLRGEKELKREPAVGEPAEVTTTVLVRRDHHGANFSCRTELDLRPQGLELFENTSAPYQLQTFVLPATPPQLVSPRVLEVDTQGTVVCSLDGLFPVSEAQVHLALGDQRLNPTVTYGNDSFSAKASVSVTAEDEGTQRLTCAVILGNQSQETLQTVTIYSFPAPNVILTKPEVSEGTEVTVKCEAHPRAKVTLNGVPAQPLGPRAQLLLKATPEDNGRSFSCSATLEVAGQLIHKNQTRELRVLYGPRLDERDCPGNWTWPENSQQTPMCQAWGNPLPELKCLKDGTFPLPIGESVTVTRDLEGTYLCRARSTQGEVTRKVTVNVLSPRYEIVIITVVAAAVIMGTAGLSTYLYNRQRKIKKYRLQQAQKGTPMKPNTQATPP

Question: “ICAM-1 (from UniProt P05362 28-532) (ligand)” was tested. Which cytotoxicity of NK92-CD16 cells against NSCLC cells (51chromium-release assay) with the ICAM1-CD11a interaction blocked did it give?
Answer: 10%

Source: article PMC5123381
